Assay results from the supplement of paper PMC10724198.
± gives the standard deviation of the averaged measurements.

Test system: Saccharomyces cerevisiae
Experiment: protein stability index of tFT-peptide fusion (C-terminal peptide) (PSI (0-1 scale)); higher = more stable (slower turnover)
Settings: genetic background: wild type; temperature: 30 C
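Further: PSI is a weighted mean of sequencing reads over stability bins, variants kept only with over 10 reads, mCherry proximal and sfGFP distal, peptide attached via GGGS linker.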

Row | Sequence | protein stability index
1 | TPSPTRCPTPTR | 0.6 ± 0.025
2 | EQKVRSPIEMML | 0.591 ± 0.0064
3 | VRVRSLEGWGMG | 0.6687 ± 0.0048
4 | NRYKINHRIKCK | 0.576 ± 0.032
5 | TISHPLGPFSVH | 0.66 ± 0.042
6 | GMLGVIGGKVGR | 0.699 ± 0.052
7 | GRRQGKRRIGRK | 0.652 ± 0.036
8 | KTPHSTARNFNR | 0.736 ± 0.092
9 | SPPPFLCSPFVA | 0.684 ± 0.024
10 | TLSTSPPPCHPL | 0.667 ± 0.06
11 | TTVLRTFGDKQF | 0.715 ± 0.00088
12 | RFLVFLLNFISI | 0.564 ± 0.037
13 | GGRHGSSRTGGY | 0.696 ± 0.018
14 | FCPVGVFCGIFG | 0.644 ± 0.029
15 | ANSRVVSFRLSG | 0.693 ± 0.047
16 | PACSFPPPPFSA | 0.703 ± 0.1
17 | EIGGYHLGWAKC | 0.636 ± 0.022
18 | VNATDYDGQPIT | 0.679 ± 0.11
19 | PAVRGEMYLGVG | 0.685 ± 0.014
20 | KRRKKKKQSGGK | 0.645 ± 0.023
21 | LVFYSSLPNFSR | 0.6815 ± 0.0024
22 | EASGPGPGAKAT | 0.6526 ± 0.0026
23 | GRRMRGAEKQKK | 0.829 ± 0.16
24 | KKGKKRNKTAKQ | 0.628 ± 0.062
25 | QCNYCVQNLSSR | 0.695 ± 0.019
26 | PRHSPPPPLPAP | 0.699 ± 0.014

Row | Sequence | protein stability index
27 | GAGGVGVTSGGK | 0.668 ± 0.056
28 | DLTQHRQHKPQK | 0.735 ± 0.043
29 | CIPCLLAYPETC | 0.655 ± 0.14
30 | HGCVWCSGLFGV | 0.739 ± 0.029
31 | PGSLRGATRPNQ | 0.739 ± 0.17
32 | KREARGERGKGE | 0.644 ± 0.04
33 | LARFRAEWGGVV | 0.691 ± 0.019
34 | ERGKRSTEWARK | 0.681 ± 0.042
35 | VGGRLRECVRVG | 0.628 ± 0.078
36 | SILPRWEFKSLS | 0.802 ± 0.06
37 | FGSCVIFAAHWF | 0.6467 ± 0.0025
38 | DYVVHSGTYGPK | 0.687 ± 0.021
39 | VDINYVIGRIRS | 0.642 ± 0.0087
40 | WASRSGPRVTLI | 0.71 ± 0.018
41 | GGIGVGGGHMLL | 0.656 ± 0.024
42 | VLEGAWPGAEAV | 0.722 ± 0.083
43 | GSVGQNLCPGSI | 0.667 ± 0.031
44 | SLPYPFSLLPSL | 0.739 ± 0.03
45 | ALAPSAFSSSPL | 0.6645 ± 0.0022
46 | RIALWPTSMPAL | 0.684 ± 0.041
47 | RGPPMPGRRGRA | 0.7 ± 0.052
48 | RLGLQWGEFGTL | 0.72 ± 0.033
49 | TPTLPPPSPTFH | 0.666 ± 0.021
50 | KKEERTQKNEKK | 0.654 ± 0.011
51 | VSSVEHCLGHCR | 0.738 ± 0.11
52 | QCGYGKLSGGSQ | 0.672 ± 0.034

Row | Sequence | protein stability index
53 | PPPLPLPSPPPS | 0.664 ± 0.08
54 | RKKKKKKKKKSN | 0.631 ± 0.089
55 | EKESERGREKDS | 0.747 ± 0.12
56 | LLLLDPPLPPPP | 0.684 ± 0.015
57 | LPPPGSSPRATS | 0.718 ± 0.06
58 | GERLVGGWHIWN | 0.706 ± 0.015
59 | TTPPPLPSDPLR | 0.622 ± 0.026
60 | ASPLSIPPLSPS | 0.633 ± 0.073
61 | SRISSCSLVRPP | 0.679 ± 0.032
62 | PLSPSCCLRRPL | 0.777 ± 0.24
63 | LPAWSYPSGWLL | 0.718 ± 0.044
64 | YALPPPPHPLSF | 0.591 ± 0.018
65 | KKEKYIQIRTID | 0.627 ± 0.033
66 | QVGSLEIFLCFI | 0.6323 ± 0.0016
67 | RSRLSEAEEYGR | 0.71 ± 0.0072
68 | ESQKKEKTKPKN | 0.655 ± 0.023
69 | IVSKESNVYIIK | 0.662 ± 0.053
70 | PSTRPMLRSQQK | 0.66 ± 0.013
71 | HGNWGSSPVVSG | 0.632 ± 0.055
72 | GGGRGGGFSGGV | 0.655 ± 0.014
73 | VLFLLSGPAILL | 0.682 ± 0.0075
74 | KQRKSESGSNTV | 0.686 ± 0.057
75 | FSHLRASFADAA | 0.687 ± 0.045
76 | GGCKSLYFEWGR | 0.734 ± 0.01
77 | RKEVKAWKTTDI | 0.694 ± 0.013
78 | QISLPDASLPPS | 0.67 ± 0.079

Row | Sequence | protein stability index
79 | GGGVHRAVRPGN | 0.653 ± 0.03
80 | FGVRPVSVPLCG | 0.592 ± 0.047
81 | GTDWRDKADLRG | 0.7071 ± 0.0046
82 | VFVGCRECKLCA | 0.57592 ± 7.6e-05
83 | FPLYKQKSGITY | 0.651 ± 0.0081
84 | PPLPPPLLPSSS | 0.711 ± 0.12
85 | GWAGGEGWRGEG | 0.6964 ± 0.0062
86 | PSHPPLLLPLLL | 0.714 ± 0.022
87 | QPTPRPSPRPAC | 0.672 ± 0.025
88 | KTKEKTKKEIQM | 0.629 ± 0.0042
89 | LRRLSTGTLSIL | 0.724 ± 0.057
90 | PSVVPSLSPLFL | 0.796 ± 0.062
91 | VSRRCVALRVGN | 0.579 ± 0.017
92 | GGGPPARRRRGA | 0.652 ± 0.023
93 | ALSVSLFKDGLF | 0.672 ± 0.063
94 | PSFLPLPLPSSF | 0.718 ± 0.028
95 | VFALFRLSSLDK | 0.673 ± 0.074
96 | RRKGGEERKLKK | 0.629 ± 0.037
97 | LPFPSPSPPFPF | 0.63 ± 0.094
98 | PPLPSTAPPSPL | 0.735 ± 0.0096
99 | LPAAPPPPPLPP | 0.742 ± 0.042
100 | ACRVAVGRLFGS | 0.717 ± 0.037
101 | GWLVVLGLVQDL | 0.559 ± 0.039
